# Data as given in article PMC9787417 (Pathogens, 2022).
# B1: human 14-3-3β, individually expressed, with affinity tag (natural protein)
# chain: MTMDKSELVQKAKLAEQAERYDDMAAAMKAVTEQGHELSNEERNLLSVAYKNVVGARRSSWRVISSIEQKTERNEKKQQMGKEYREKIEAELQDICNDVLELLDKYLIPNATQPESKVFYLKMKGDYFRYLSEVASGDNKQTTVSNSQQAYQEAFEISKKEMQPTHPIRLGLALNFSVFYYEILNSPEKACSLAKTAFDEAIAELDTLNEESYKDSTLIMQLLRDNLTLWTSENQGDEG
# notes: also called purified 14-3-3β
# B2: human 14-3-3β, un-tagged, co-expressed with the exotoxin ART domains (natural protein)
# chain: B1 chain
# Columns and labels:
# [1] = biological target: 14-3-3β (Homo sapiens) (UniProt P31946); settings: cited from earlier work
# Sequence of 14-3-3β (Homo sapiens) (P31946 2-246): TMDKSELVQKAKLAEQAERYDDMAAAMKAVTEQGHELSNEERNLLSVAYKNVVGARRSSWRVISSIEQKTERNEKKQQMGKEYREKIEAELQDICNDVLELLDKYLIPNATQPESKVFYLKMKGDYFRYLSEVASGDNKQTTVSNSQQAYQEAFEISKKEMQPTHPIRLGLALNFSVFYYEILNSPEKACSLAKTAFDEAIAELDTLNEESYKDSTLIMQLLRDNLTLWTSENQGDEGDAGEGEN
# [2] = biological target: the molecule itself; assay: mass photometry
Molecule,Kd [1] [nM],stoichiometry N [2]
ExoS ART domain (from UniProt G3XDA1),40,
B1,,2
B2,,2
